Results as given in publication PMC3973348, “Structural integrity of the PCI domain of eIF3a/TIF32 is required for mRNA recruitment to the 43S pre-initiation complexes” (Nucleic Acids Research, 2014).

Biological target: T1, eIF3c/NIP1 (S. cerevisiae, UniProt P32497 1-812)
T1 construct: eIF3c/NIP1 subunit of yeast eIF3; 50 ug = 0.5 nmol (about 100 kDa) fits a whole protein (surmise); source: purified
Experiment: ITC; VP-ITC; 100 uM a/TIF32^276-494 injected in 20 ul aliquots into the cell with 10 uM c/NIP1; 150 mM KCl, 10 mM Hepes pH 7.5, 5% glycerol
Conditions: both partners purified

T1 sequence (P32497 whole entry): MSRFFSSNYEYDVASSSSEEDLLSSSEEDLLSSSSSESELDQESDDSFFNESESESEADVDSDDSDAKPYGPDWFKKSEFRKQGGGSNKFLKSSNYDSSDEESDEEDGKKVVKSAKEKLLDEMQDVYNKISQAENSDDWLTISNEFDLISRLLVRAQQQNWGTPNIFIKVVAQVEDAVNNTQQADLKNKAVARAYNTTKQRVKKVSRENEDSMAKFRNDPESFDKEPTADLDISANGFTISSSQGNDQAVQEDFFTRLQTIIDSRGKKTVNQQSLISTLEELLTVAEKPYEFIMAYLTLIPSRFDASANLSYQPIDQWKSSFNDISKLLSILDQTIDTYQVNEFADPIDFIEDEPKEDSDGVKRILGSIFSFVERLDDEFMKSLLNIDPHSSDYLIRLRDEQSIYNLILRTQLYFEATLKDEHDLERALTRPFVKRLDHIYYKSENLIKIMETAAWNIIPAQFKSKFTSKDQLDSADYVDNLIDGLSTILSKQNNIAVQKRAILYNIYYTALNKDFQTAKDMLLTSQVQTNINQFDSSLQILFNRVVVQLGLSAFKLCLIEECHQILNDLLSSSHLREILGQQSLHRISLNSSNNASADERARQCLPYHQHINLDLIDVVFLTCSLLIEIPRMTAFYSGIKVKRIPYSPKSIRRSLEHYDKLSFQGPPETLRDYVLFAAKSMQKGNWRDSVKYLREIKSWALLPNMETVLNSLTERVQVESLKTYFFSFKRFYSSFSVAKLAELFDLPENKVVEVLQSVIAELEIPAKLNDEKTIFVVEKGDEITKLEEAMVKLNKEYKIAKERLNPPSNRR

Kd: 158 nM
dH: -10.2 kcal/mol
stoichiometry N: 0.944
B1: a/TIF32^276-494 (PCI domain of eIF3a/TIF32) (domain or fragment, S. cerevisiae, UniProt P38249 276-494, looked up)
chain: PSTLANYYENLVKVFFVSGDPLLHTTAWKKFYKLYSTNPRATEEEFKTYSSTIFLSAISTQLDEIPSIGYDPHLRMYRLLNLDAKPTRKEMLQSIIEDESIYGKVDEELKELYDIIEVNFDVDTVKQQLENLLVKLSSKTYFSQYIAPLRDVIMRRVFVAASQKFTTVSQSELYKLATLPAPLDLSAWDIEKSLLQAAVEDYVSITIDHESAKVTFAKD
notes: Detailed purification scheme is in Supplementary Methods; also called a/TIF32-PCI; a/TIF32 PCI domain
